{
  "source": "paper PMC4770209",
  "about": "“Genome-wide binding studies reveal DNA binding specificity mechanisms and functional interplay amongst Forkhead transcription factors”",
  "binders": {"B1": {"name": "CYP27C1 WT (ADS2782/ADS2783) (dsDNA)", "DNA 1": "CTAGAACATGTTAATGTAAACAAGGAAGCCTG", "DNA 2": "CTAGCAGGCTTCCTTGTTTACATTAACATGTT"}, "B2": {"name": "CYP27C1mut2 (ADS3739/ADS3740) (dsDNA)", "DNA 1": "CTAGAACATGTTAATGTAAACAGAGAAGCCTG", "DNA 2": "CTAGCAGGCTTCTCTGTTTACATTAACATGTT"}, "B3": {"name": "CYP27C1mut1 (ADS3737/ADS3738) (dsDNA)", "DNA 1": "CTAGAACATGTTAGGGTAAACAAGGAAGCCTG", "DNA 2": "CTAGCAGGCTTCCTTGTTTACCCTAACATGTT"}},
  "key": {"[1]": {"biological_target": "T1, FOXK2(228-382) (UniProt Q01167 228-382)", "T1 sequence (Q01167 228-382)": "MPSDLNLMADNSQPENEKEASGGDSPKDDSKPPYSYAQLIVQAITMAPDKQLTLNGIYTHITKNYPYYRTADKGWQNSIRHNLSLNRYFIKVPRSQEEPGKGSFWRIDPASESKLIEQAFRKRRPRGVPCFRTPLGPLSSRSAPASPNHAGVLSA", "test": "EMSA; competition; labelled WT probe; unlabelled WT competitor 25-200x; EMSA: 75 mM KCl, room temperature 30 min, 5% PAGE in 0.25x TBE at 4 C; pull-down conditions not in material", "settings": "protein: recombinant; tags: 6xHis; label: radioactive label (probe); 5' overhang 4 nt at both ends"}, "[2]": {"biological_target": "T2, FOXO3(130-271) (UniProt O43524 130-271)", "T2 sequence (O43524 130-271)": "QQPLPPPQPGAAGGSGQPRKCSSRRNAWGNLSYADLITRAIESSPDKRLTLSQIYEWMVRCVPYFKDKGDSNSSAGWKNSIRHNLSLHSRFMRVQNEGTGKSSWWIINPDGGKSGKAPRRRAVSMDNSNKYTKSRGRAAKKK", "test": "EMSA; competition; labelled WT probe; unlabelled WT competitor 25-200x; EMSA: 75 mM KCl, room temperature 30 min, 5% PAGE in 0.25x TBE at 4 C; pull-down conditions not in material", "settings": "protein: recombinant; tags: 6xHis; label: radioactive label (probe); 5' overhang 4 nt at both ends"}, "[3]": {"biological_target": "T1, FOXK2(228-382)", "test": "competition; unlabelled competitor 25-200x; competes equally to WT; EMSA: 75 mM KCl, room temperature 30 min, 5% PAGE in 0.25x TBE at 4 C; pull-down conditions not in material", "settings": "protein: recombinant; tags: 6xHis; 5' overhang 4 nt at both ends"}, "[4]": {"biological_target": "T2, FOXO3(130-271)", "test": "competition; unlabelled competitor 25-200x; competes equally to WT; EMSA: 75 mM KCl, room temperature 30 min, 5% PAGE in 0.25x TBE at 4 C; pull-down conditions not in material", "settings": "protein: recombinant; tags: 6xHis; 5' overhang 4 nt at both ends"}},
  "data": [
    {"binder": "B1", "values": [
      {"measurement": "binding result", "setting": "[1]", "value": "binds"},
      {"measurement": "binding result", "setting": "[2]", "value": "binds"}
    ]},
    {"binder": "B2", "values": [
      {"measurement": "binding result", "setting": "[3]", "value": "binds"},
      {"measurement": "binding result", "setting": "[4]", "value": "binds"}
    ]},
    {"binder": "B3", "values": [
      {"measurement": "binding result", "setting": "[4]", "value": "binds"}
    ]}
  ]
}
